These results are taken from patent US20050226864A1.

The experiment addresses recombinant, GPI-linked human FcRn on the surface of NS0 cells (human) (UniProt P55899). Briefly: competitive flow cytometry on NS0 cells with human FcRn, pH 6.0; competitor biotinylated TNF-RII/Fc-fusion protein.
Chain of UniProt P55899 (P55899 24-297, chain 1 of 2): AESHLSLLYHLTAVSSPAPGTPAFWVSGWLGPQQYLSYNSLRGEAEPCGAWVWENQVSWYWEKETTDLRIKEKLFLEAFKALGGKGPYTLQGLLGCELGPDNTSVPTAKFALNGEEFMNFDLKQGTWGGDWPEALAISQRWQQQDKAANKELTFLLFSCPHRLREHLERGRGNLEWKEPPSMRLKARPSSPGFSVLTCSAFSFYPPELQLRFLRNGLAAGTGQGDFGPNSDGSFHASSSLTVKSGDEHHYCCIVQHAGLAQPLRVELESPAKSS
Chain of UniProt P55899 (b2m, as listed by the source, chain 2 of 2): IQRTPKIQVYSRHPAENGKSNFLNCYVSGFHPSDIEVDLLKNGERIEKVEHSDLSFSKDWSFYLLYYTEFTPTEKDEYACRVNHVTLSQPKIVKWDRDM

With “TNF-RII/Fc-fusion protein double mutant T250Q/M428L (Fc fusion)”, the fold better binding than the wild-type was found to be 2 fold.
